A word on the stoichiometry N: it is a count of units in the complex or per binding partner.

In the test the target is TBEV envelope protein (E-protein), strain Hypr, in the purified virion (tick-borne encephalitis virus, strain Hypr) (UniProt Q01299). The experiment in a line: cryo-EM structure.

“TBEV envelope protein (E-protein), strain Hypr, in the purified virion (from UniProt Q01299) (natural protein)” registered a stoichiometry N of 2.
